# T1: Human CD3eg linker (human)
# T1 construct: Single chain: epsilon and gamma subunits of human CD3 joined by a 29-mer linker, Flag-tag at the C-terminus; also called recombinant human CD3
# T1 chain: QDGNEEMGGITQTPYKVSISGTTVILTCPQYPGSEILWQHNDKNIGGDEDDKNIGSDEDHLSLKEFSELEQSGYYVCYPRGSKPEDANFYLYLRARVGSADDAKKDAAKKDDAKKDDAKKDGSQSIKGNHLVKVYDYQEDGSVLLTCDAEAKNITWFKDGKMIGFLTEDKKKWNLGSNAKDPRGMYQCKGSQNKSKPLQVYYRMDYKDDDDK
# Biological target: T1, Human CD3eg linker
# Assay: Biacore SPR, vs template H183/L072
row,Binder,fold change of affinity
1,"H183/L072 VH G100hP (antibody, name in Kabat numbering, V domains shown) VH: QVQLVESGGGLVQPGRSLRLSCAASGFTFSNAWMHWVRQAPGKGLEWVAQIKDKGNAYAAYYAPSVKGRFTISRDDSKNSIYLQMNSLKTEDTAVYYCHYVHYASASTVLPAFPVDAWGQGTTVTVSS VL: DIVMTQSPLSLPVTPGEPASISCQASQELVHMNRNTYLHWYQQKPGQAPRLLIYKVSNRFPGVPDRFSGSGSGTDFTLKISRVEAEDVGVYYCAQGTSVPFTFGQGTKLEIK",0.6 fold
2,"H183/L072 VH H35F (antibody, name in Kabat numbering, V domains shown) VH: QVQLVESGGGLVQPGRSLRLSCAASGFTFSNAWMFWVRQAPGKGLEWVAQIKDKGNAYAAYYAPSVKGRFTISRDDSKNSIYLQMNSLKTEDTAVYYCHYVHYASASTVLPAFGVDAWGQGTTVTVSS VL: DIVMTQSPLSLPVTPGEPASISCQASQELVHMNRNTYLHWYQQKPGQAPRLLIYKVSNRFPGVPDRFSGSGSGTDFTLKISRVEAEDVGVYYCAQGTSVPFTFGQGTKLEIK",0 fold
3,"H183/L072 VH H35M (antibody, name in Kabat numbering, V domains shown) VH: QVQLVESGGGLVQPGRSLRLSCAASGFTFSNAWMMWVRQAPGKGLEWVAQIKDKGNAYAAYYAPSVKGRFTISRDDSKNSIYLQMNSLKTEDTAVYYCHYVHYASASTVLPAFGVDAWGQGTTVTVSS VL: DIVMTQSPLSLPVTPGEPASISCQASQELVHMNRNTYLHWYQQKPGQAPRLLIYKVSNRFPGVPDRFSGSGSGTDFTLKISRVEAEDVGVYYCAQGTSVPFTFGQGTKLEIK",0 fold
4,"H183/L072 VH H35E (antibody, name in Kabat numbering, V domains shown) VH: QVQLVESGGGLVQPGRSLRLSCAASGFTFSNAWMEWVRQAPGKGLEWVAQIKDKGNAYAAYYAPSVKGRFTISRDDSKNSIYLQMNSLKTEDTAVYYCHYVHYASASTVLPAFGVDAWGQGTTVTVSS VL: DIVMTQSPLSLPVTPGEPASISCQASQELVHMNRNTYLHWYQQKPGQAPRLLIYKVSNRFPGVPDRFSGSGSGTDFTLKISRVEAEDVGVYYCAQGTSVPFTFGQGTKLEIK",0 fold
5,"H183/L072 VH H35N (antibody, name in Kabat numbering, V domains shown) VH: QVQLVESGGGLVQPGRSLRLSCAASGFTFSNAWMNWVRQAPGKGLEWVAQIKDKGNAYAAYYAPSVKGRFTISRDDSKNSIYLQMNSLKTEDTAVYYCHYVHYASASTVLPAFGVDAWGQGTTVTVSS VL: DIVMTQSPLSLPVTPGEPASISCQASQELVHMNRNTYLHWYQQKPGQAPRLLIYKVSNRFPGVPDRFSGSGSGTDFTLKISRVEAEDVGVYYCAQGTSVPFTFGQGTKLEIK",0 fold
6,"H183/L072 VH H35G (antibody, name in Kabat numbering, V domains shown) VH: QVQLVESGGGLVQPGRSLRLSCAASGFTFSNAWMGWVRQAPGKGLEWVAQIKDKGNAYAAYYAPSVKGRFTISRDDSKNSIYLQMNSLKTEDTAVYYCHYVHYASASTVLPAFGVDAWGQGTTVTVSS VL: DIVMTQSPLSLPVTPGEPASISCQASQELVHMNRNTYLHWYQQKPGQAPRLLIYKVSNRFPGVPDRFSGSGSGTDFTLKISRVEAEDVGVYYCAQGTSVPFTFGQGTKLEIK",0 fold
7,"H183/L072 VH H35A (antibody, name in Kabat numbering, V domains shown) VH: QVQLVESGGGLVQPGRSLRLSCAASGFTFSNAWMAWVRQAPGKGLEWVAQIKDKGNAYAAYYAPSVKGRFTISRDDSKNSIYLQMNSLKTEDTAVYYCHYVHYASASTVLPAFGVDAWGQGTTVTVSS VL: DIVMTQSPLSLPVTPGEPASISCQASQELVHMNRNTYLHWYQQKPGQAPRLLIYKVSNRFPGVPDRFSGSGSGTDFTLKISRVEAEDVGVYYCAQGTSVPFTFGQGTKLEIK",0 fold
8,"H183/L072 VH H35D (antibody, name in Kabat numbering, V domains shown) VH: QVQLVESGGGLVQPGRSLRLSCAASGFTFSNAWMDWVRQAPGKGLEWVAQIKDKGNAYAAYYAPSVKGRFTISRDDSKNSIYLQMNSLKTEDTAVYYCHYVHYASASTVLPAFGVDAWGQGTTVTVSS VL: DIVMTQSPLSLPVTPGEPASISCQASQELVHMNRNTYLHWYQQKPGQAPRLLIYKVSNRFPGVPDRFSGSGSGTDFTLKISRVEAEDVGVYYCAQGTSVPFTFGQGTKLEIK",0 fold
9,"H183/L072 VH H35K (antibody, name in Kabat numbering, V domains shown) VH: QVQLVESGGGLVQPGRSLRLSCAASGFTFSNAWMKWVRQAPGKGLEWVAQIKDKGNAYAAYYAPSVKGRFTISRDDSKNSIYLQMNSLKTEDTAVYYCHYVHYASASTVLPAFGVDAWGQGTTVTVSS VL: DIVMTQSPLSLPVTPGEPASISCQASQELVHMNRNTYLHWYQQKPGQAPRLLIYKVSNRFPGVPDRFSGSGSGTDFTLKISRVEAEDVGVYYCAQGTSVPFTFGQGTKLEIK",0 fold
10,"H183/L072 VH H35L (antibody, name in Kabat numbering, V domains shown) VH: QVQLVESGGGLVQPGRSLRLSCAASGFTFSNAWMLWVRQAPGKGLEWVAQIKDKGNAYAAYYAPSVKGRFTISRDDSKNSIYLQMNSLKTEDTAVYYCHYVHYASASTVLPAFGVDAWGQGTTVTVSS VL: DIVMTQSPLSLPVTPGEPASISCQASQELVHMNRNTYLHWYQQKPGQAPRLLIYKVSNRFPGVPDRFSGSGSGTDFTLKISRVEAEDVGVYYCAQGTSVPFTFGQGTKLEIK",0 fold
11,"H183/L072 VH H35P (antibody, name in Kabat numbering, V domains shown) VH: QVQLVESGGGLVQPGRSLRLSCAASGFTFSNAWMPWVRQAPGKGLEWVAQIKDKGNAYAAYYAPSVKGRFTISRDDSKNSIYLQMNSLKTEDTAVYYCHYVHYASASTVLPAFGVDAWGQGTTVTVSS VL: DIVMTQSPLSLPVTPGEPASISCQASQELVHMNRNTYLHWYQQKPGQAPRLLIYKVSNRFPGVPDRFSGSGSGTDFTLKISRVEAEDVGVYYCAQGTSVPFTFGQGTKLEIK",0 fold
12,"H183/L072 VH H35I (antibody, name in Kabat numbering, V domains shown) VH: QVQLVESGGGLVQPGRSLRLSCAASGFTFSNAWMIWVRQAPGKGLEWVAQIKDKGNAYAAYYAPSVKGRFTISRDDSKNSIYLQMNSLKTEDTAVYYCHYVHYASASTVLPAFGVDAWGQGTTVTVSS VL: DIVMTQSPLSLPVTPGEPASISCQASQELVHMNRNTYLHWYQQKPGQAPRLLIYKVSNRFPGVPDRFSGSGSGTDFTLKISRVEAEDVGVYYCAQGTSVPFTFGQGTKLEIK",0 fold

# Continued, values first:
row,fold change of affinity,Binder
1,0 fold,"H183/L072 VH H35T (antibody, name in Kabat numbering, V domains shown) VH: QVQLVESGGGLVQPGRSLRLSCAASGFTFSNAWMTWVRQAPGKGLEWVAQIKDKGNAYAAYYAPSVKGRFTISRDDSKNSIYLQMNSLKTEDTAVYYCHYVHYASASTVLPAFGVDAWGQGTTVTVSS VL: DIVMTQSPLSLPVTPGEPASISCQASQELVHMNRNTYLHWYQQKPGQAPRLLIYKVSNRFPGVPDRFSGSGSGTDFTLKISRVEAEDVGVYYCAQGTSVPFTFGQGTKLEIK"
2,0 fold,"H183/L072 VH H35W (antibody, name in Kabat numbering, V domains shown) VH: QVQLVESGGGLVQPGRSLRLSCAASGFTFSNAWMWWVRQAPGKGLEWVAQIKDKGNAYAAYYAPSVKGRFTISRDDSKNSIYLQMNSLKTEDTAVYYCHYVHYASASTVLPAFGVDAWGQGTTVTVSS VL: DIVMTQSPLSLPVTPGEPASISCQASQELVHMNRNTYLHWYQQKPGQAPRLLIYKVSNRFPGVPDRFSGSGSGTDFTLKISRVEAEDVGVYYCAQGTSVPFTFGQGTKLEIK"
3,0 fold,"H183/L072 VH H35V (antibody, name in Kabat numbering, V domains shown) VH: QVQLVESGGGLVQPGRSLRLSCAASGFTFSNAWMVWVRQAPGKGLEWVAQIKDKGNAYAAYYAPSVKGRFTISRDDSKNSIYLQMNSLKTEDTAVYYCHYVHYASASTVLPAFGVDAWGQGTTVTVSS VL: DIVMTQSPLSLPVTPGEPASISCQASQELVHMNRNTYLHWYQQKPGQAPRLLIYKVSNRFPGVPDRFSGSGSGTDFTLKISRVEAEDVGVYYCAQGTSVPFTFGQGTKLEIK"
4,0 fold,"H183/L072 VH H93A (antibody, name in Kabat numbering, V domains shown) VH: QVQLVESGGGLVQPGRSLRLSCAASGFTFSNAWMHWVRQAPGKGLEWVAQIKDKGNAYAAYYAPSVKGRFTISRDDSKNSIYLQMNSLKTEDTAVYYCAYVHYASASTVLPAFGVDAWGQGTTVTVSS VL: DIVMTQSPLSLPVTPGEPASISCQASQELVHMNRNTYLHWYQQKPGQAPRLLIYKVSNRFPGVPDRFSGSGSGTDFTLKISRVEAEDVGVYYCAQGTSVPFTFGQGTKLEIK"
5,0 fold,"H183/L072 VH H35Q (antibody, name in Kabat numbering, V domains shown) VH: QVQLVESGGGLVQPGRSLRLSCAASGFTFSNAWMQWVRQAPGKGLEWVAQIKDKGNAYAAYYAPSVKGRFTISRDDSKNSIYLQMNSLKTEDTAVYYCHYVHYASASTVLPAFGVDAWGQGTTVTVSS VL: DIVMTQSPLSLPVTPGEPASISCQASQELVHMNRNTYLHWYQQKPGQAPRLLIYKVSNRFPGVPDRFSGSGSGTDFTLKISRVEAEDVGVYYCAQGTSVPFTFGQGTKLEIK"
6,0.5 fold,"H183/L072 VH H35S (antibody, name in Kabat numbering, V domains shown) VH: QVQLVESGGGLVQPGRSLRLSCAASGFTFSNAWMSWVRQAPGKGLEWVAQIKDKGNAYAAYYAPSVKGRFTISRDDSKNSIYLQMNSLKTEDTAVYYCHYVHYASASTVLPAFGVDAWGQGTTVTVSS VL: DIVMTQSPLSLPVTPGEPASISCQASQELVHMNRNTYLHWYQQKPGQAPRLLIYKVSNRFPGVPDRFSGSGSGTDFTLKISRVEAEDVGVYYCAQGTSVPFTFGQGTKLEIK"
7,0 fold,"H183/L072 VH H35R (antibody, name in Kabat numbering, V domains shown) VH: QVQLVESGGGLVQPGRSLRLSCAASGFTFSNAWMRWVRQAPGKGLEWVAQIKDKGNAYAAYYAPSVKGRFTISRDDSKNSIYLQMNSLKTEDTAVYYCHYVHYASASTVLPAFGVDAWGQGTTVTVSS VL: DIVMTQSPLSLPVTPGEPASISCQASQELVHMNRNTYLHWYQQKPGQAPRLLIYKVSNRFPGVPDRFSGSGSGTDFTLKISRVEAEDVGVYYCAQGTSVPFTFGQGTKLEIK"
8,0 fold,"H183/L072 VH H35Y (antibody, name in Kabat numbering, V domains shown) VH: QVQLVESGGGLVQPGRSLRLSCAASGFTFSNAWMYWVRQAPGKGLEWVAQIKDKGNAYAAYYAPSVKGRFTISRDDSKNSIYLQMNSLKTEDTAVYYCHYVHYASASTVLPAFGVDAWGQGTTVTVSS VL: DIVMTQSPLSLPVTPGEPASISCQASQELVHMNRNTYLHWYQQKPGQAPRLLIYKVSNRFPGVPDRFSGSGSGTDFTLKISRVEAEDVGVYYCAQGTSVPFTFGQGTKLEIK"

# From patent US20210388087A1 (Chugai, published 2021)
